Assay results taken from patent publication US20110191904A1.
Read-outs that look alike come from different tables or passages of the source.

What was measured:
Assay in all cases: cell-based or functional assay
[1] = target: T1, Arabidopsis FAD2 (At3g12120) (Arabidopsis thaliana) (UniProt P46313)
T1 sequence (looked up): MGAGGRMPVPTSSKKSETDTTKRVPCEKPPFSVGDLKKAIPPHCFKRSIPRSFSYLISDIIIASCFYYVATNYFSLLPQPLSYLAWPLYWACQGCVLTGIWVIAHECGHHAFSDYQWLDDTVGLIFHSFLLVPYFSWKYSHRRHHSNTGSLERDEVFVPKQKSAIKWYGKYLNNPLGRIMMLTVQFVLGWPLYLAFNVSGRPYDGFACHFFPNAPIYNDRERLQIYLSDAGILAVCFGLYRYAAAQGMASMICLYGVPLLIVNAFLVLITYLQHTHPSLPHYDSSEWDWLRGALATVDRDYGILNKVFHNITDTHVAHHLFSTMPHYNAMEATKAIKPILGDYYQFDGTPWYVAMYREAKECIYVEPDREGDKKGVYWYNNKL

[2] = target: T2, Arabidopsis FAD3 (At2g29980) (Arabidopsis thaliana) (UniProt P48623)
T2 sequence (looked up): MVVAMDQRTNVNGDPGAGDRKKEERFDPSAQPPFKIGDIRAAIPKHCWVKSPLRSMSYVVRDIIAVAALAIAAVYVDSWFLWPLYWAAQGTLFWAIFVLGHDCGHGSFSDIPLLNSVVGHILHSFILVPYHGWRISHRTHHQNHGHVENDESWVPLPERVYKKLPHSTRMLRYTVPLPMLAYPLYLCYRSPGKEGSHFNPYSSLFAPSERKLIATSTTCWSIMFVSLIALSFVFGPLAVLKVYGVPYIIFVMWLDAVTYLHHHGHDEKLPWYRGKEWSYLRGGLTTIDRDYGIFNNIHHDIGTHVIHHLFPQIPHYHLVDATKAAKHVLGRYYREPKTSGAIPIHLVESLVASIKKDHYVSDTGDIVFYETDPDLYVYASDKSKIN

[3] = target: T2, Arabidopsis FAD3 (At2g29980) (Arabidopsis thaliana); remark: listed apart in the source
[4] = target: T1, Arabidopsis FAD2 (At3g12120) (Arabidopsis thaliana); remark: listed apart in the source

Molecule: Arabidopsis cytochrome b5 Cb5-B (At5g48810) (from UniProt Q9ZWT2 1-140)
- 16:2 content of cb5 mutant yeast co-expressing both, 15 C (GC-FID) (mol percentage of total fatty acids) [1]: 1.3
- 16:2 content of cb5 mutant yeast co-expressing both, 28 C (GC-FID) (mol percentage of total fatty acids) [1]: 1.2
- 18:2 content of cb5 mutant yeast co-expressing both, 15 C (GC-FID) (mol percentage of total fatty acids) [1]: 7.4
- 18:2 content of cb5 mutant yeast co-expressing both, 28 C (GC-FID) (mol percentage of total fatty acids) [1]: 6
- 18:3 content of cb5 mutant yeast co-expressing both, 15 C, 18:2 fed (GC-FID) (mol percentage of total fatty acids) [2]: 11.8
- 18:3 content of cb5 mutant yeast co-expressing both, 28 C, 18:2 fed (GC-FID) (mol percentage of total fatty acids) [2]: 8.2

B1: soybean (Glycine max) cytochrome b5 GmCb5-C2 (protein)
chain: MGSKTKTFTFEEVAKHNHRKDCWIIVKGKVYDVTPFLDDHPGGDEVLVTATEKDATTDFEDIGHSDSATQMMEKYFVGEVDTNTLPAQVTSNNSVRQPTQAPPAYNNQSSGFVVKMLQYIVPLLILAFAFGLQYYGKKNKSTESEN
- 18:3 content of cb5 mutant yeast co-expressing both, 15 C, 18:2 fed (GC-FID) (mol percentage of total fatty acids) [3]: 3.8
- 18:3 content of cb5 mutant yeast co-expressing both, 28 C, 18:2 fed (GC-FID) (mol percentage of total fatty acids) [3]: 3.9

B2: Arabidopsis cytochrome b5 Cb5-E (At2g32720) (protein, Arabidopsis thaliana, UniProt O48845 1-134, looked up)
chain: MGDEAKIFTLSEVSEHNQAHDCWIVINGKVYNVTKFLEDHPGGDDVLLSSTGKDATDDFEDVGHSESAREMMEQYYVGEIDPTTIPKKVKYTPPKQPHYNQDKTSEFIIKLLQFLVPLAILGLAVGIRIYTKSG
- 18:3 content of cb5 mutant yeast co-expressing both, 15 C, 18:2 fed (GC-FID) (mol percentage of total fatty acids) [3]: 12.6
- 18:3 content of cb5 mutant yeast co-expressing both, 28 C, 18:2 fed (GC-FID) (mol percentage of total fatty acids) [3]: 8.2

B3: Arabidopsis cytochrome b5 Cb5-C (At2g46650) (protein, Arabidopsis thaliana, UniProt Q9ZNV4 1-132, looked up)
chain: MANLISFHDVAKHKCKNDCWILIHGKVYDISTFMDEHPGGDNVLLAVTGKDASIDFEDVNHSKDAKELMKKYCIGDVDQSTVPVTQQYIPPWEKESTAAETTKEESGKKLLIYLIPLLILGVAFALRFYNNK
- 16:2 content of cb5 mutant yeast co-expressing both, 15 C (GC-FID) (mol percentage of total fatty acids) [4]: 1.2
- 16:2 content of cb5 mutant yeast co-expressing both, 28 C (GC-FID) (mol percentage of total fatty acids) [4]: 0.9
- 18:2 content of cb5 mutant yeast co-expressing both, 15 C (GC-FID) (mol percentage of total fatty acids) [4]: 7.2
- 18:2 content of cb5 mutant yeast co-expressing both, 28 C (GC-FID) (mol percentage of total fatty acids) [4]: 6.4

B4: soybean (Glycine max) cytochrome b5 GmCb5-C3 (protein)
chain: MASNPKTLTFEEVAKHNNKKDCWIIINGKVYDITPFLDEHPGGDEVLLTSTGKDATIDFEDVGHSDSAIEMMEKYFIGKVDTSTLPPKVSHSLPQPTQTHGAGNQSSGFVVKILQFLLPLLILGLAFALQYYGQKKHASTS
- 18:3 content of cb5 mutant yeast co-expressing both, 15 C, 18:2 fed (GC-FID) (mol percentage of total fatty acids) [3]: 2
- 18:3 content of cb5 mutant yeast co-expressing both, 28 C, 18:2 fed (GC-FID) (mol percentage of total fatty acids) [3]: 2.6
